Experimental data reported in article PMC3737549.

B1: Myc-Prox1 PΔC636 (domain or fragment)
chain: MPDHDSTALLSRQTKRRRVDIGVKRTVGTASAFFAKARATFFSAMNPQGSEQDVEYSVVQHADGEKSNVLRKLLKRANSYEDAMMPFPGATIISQLLKNNMNKNGGTEPSFQASGLSSTGSEVHQEDICSNSSRDSPPECLSPFGRPTMSQFDVDRLCDEHLRAKRARVENIIRGMSHSPSVALRGNENEREMAPQSVSPRESYRENKRKQKLPQQQQQSFQQLVSARKEQKREERRQLKQQLEDMQKQLRQLQEKFYQVYDSTDSENDEDGDLSEDSMRSEILDARAQDSVGRSDNEMCELDPGQFIDRARALIREQEMAENKPKREGSNKERDHGPNSLQPEGKHLAETLKQELNTAMSQVVDTVVKVFSAKPSRQVPQVFPPLQIPQARFAVNGENHNFHTANQRLQCFGDVIIPNPLDTFGSVQMPSSTDQTEALPLVVRKNSSEQSASGPATGGHHQPLHQSPLSATAGFTTPSFRHPFPLPLMAYPFQSPLGAPSGSFSGKDRASPESLDLTRDTTSLRTKMSSHHLSHHPCSPAHPPSTAEGLSLSLIKSECGDLQDMSDISPYSGSAMQEGLSPNHLKKAKLMFFYTRYPSSNMLKTYFSDVKFNRCITSQLIKWFSNFREFYYIQME
B2: Myc-Prox1 PΔN106 (domain or fragment)
chain: TEPSFQASGLSSTGSEVHQEDICSNSSRDSPPECLSPFGRPTMSQFDVDRLCDEHLRAKRARVENIIRGMSHSPSVALRGNENEREMAPQSVSPRESYRENKRKQKLPQQQQQSFQQLVSARKEQKREERRQLKQQLEDMQKQLRQLQEKFYQVYDSTDSENDEDGDLSEDSMRSEILDARAQDSVGRSDNEMCELDPGQFIDRARALIREQEMAENKPKREGSNKERDHGPNSLQPEGKHLAETLKQELNTAMSQVVDTVVKVFSAKPSRQVPQVFPPLQIPQARFAVNGENHNFHTANQRLQCFGDVIIPNPLDTFGSVQMPSSTDQTEALPLVVRKNSSEQSASGPATGGHHQPLHQSPLSATAGFTTPSFRHPFPLPLMAYPFQSPLGAPSGSFSGKDRASPESLDLTRDTTSLRTKMSSHHLSHHPCSPAHPPSTAEGLSLSLIKSECGDLQDMSDISPYSGSAMQEGLSPNHLKKAKLMFFYTRYPSSNMLKTYFSDVKFNRCITSQLIKWFSNFREFYYIQMEKYARQAINDGVTSTEELSITRDCELYRALNMHYNKANDFEVPERFLEVAQITLREFFNAIIAGKDVDPSWKKAIYKVICKLDSEVPEIFKSPNCLQELLHE

Biological target: RORγ-mCherry (UniProt P51450)
Chain of UniProt P51450 (P51450 whole entry): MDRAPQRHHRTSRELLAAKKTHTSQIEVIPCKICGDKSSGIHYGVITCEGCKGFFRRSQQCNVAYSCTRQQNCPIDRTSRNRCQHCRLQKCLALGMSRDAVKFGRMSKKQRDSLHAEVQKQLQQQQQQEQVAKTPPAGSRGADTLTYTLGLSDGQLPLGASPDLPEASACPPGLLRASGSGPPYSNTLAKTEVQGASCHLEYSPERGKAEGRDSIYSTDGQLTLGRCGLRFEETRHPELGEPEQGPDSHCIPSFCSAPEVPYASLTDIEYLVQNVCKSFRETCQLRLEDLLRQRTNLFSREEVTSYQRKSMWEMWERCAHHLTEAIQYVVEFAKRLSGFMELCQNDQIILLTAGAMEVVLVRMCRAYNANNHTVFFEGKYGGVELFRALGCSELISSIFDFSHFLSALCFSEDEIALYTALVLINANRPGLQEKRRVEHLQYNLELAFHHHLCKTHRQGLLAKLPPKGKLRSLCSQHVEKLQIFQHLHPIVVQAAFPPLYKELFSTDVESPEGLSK

nuclear localisation of PΔC636 in COS-1 cells: percent of cells with the mutant predominantly in the nucleus on co-expression with RORγ (6% when expressed alone) (% of the cells) | nuclear localisation of PΔN106 in COS-1 cells: percent of cells with the mutant principally in the nucleus on co-expression with RORγ (50% when expressed alone) (% of the cells) | Binder
80 |  | B1
 | 90 | B2
